The record followed here is publication PMC3781949 (Molecular microbiology, 2011).

The data set concerns the molecule itself. Nature of the data set: SPR. Background: Surface plasmon resonance follows binding to a sensor surface in real time, without labels.

B1: Maf-His6, purified recombinant Maf (natural protein, B. subtilis, UniProt Q02169 1-189, looked up)
chain: MTKPLILASQSPRRKELLDLLQLPYSIIVSEVEEKLNRNFSPEENVQWLAKQKAKAVADLHPHAIVIGADTMVCLDGECLGKPQDQEEAASMLRRLSGRSHSVITAVSIQAENHSETFYDKTEVAFWSLSEEEIWTYIETKEPMDKAGAYGIQGRGALFVKKIDGDYYSVMGLPISKTMRALRHFDIRA
With B1, the binding result is recorded as “binds”.
